From IntAct's records for PubMed 10713164 come the findings set out here.

The target in this experiment is ncor2_human NCOR2 (UniProt Q9Y618).

In the case of “Recombining binding protein suppressor of hairless (Homo sapiens), Q06330 E233A;E234A;F235A”, the “effect of a mutation on the interaction” value is “decreasing interaction strength”.
